T1: PCY1:S562A (Saponaria vaccaria, UniProt R4P353 1-724, S562A)
T1 sequence: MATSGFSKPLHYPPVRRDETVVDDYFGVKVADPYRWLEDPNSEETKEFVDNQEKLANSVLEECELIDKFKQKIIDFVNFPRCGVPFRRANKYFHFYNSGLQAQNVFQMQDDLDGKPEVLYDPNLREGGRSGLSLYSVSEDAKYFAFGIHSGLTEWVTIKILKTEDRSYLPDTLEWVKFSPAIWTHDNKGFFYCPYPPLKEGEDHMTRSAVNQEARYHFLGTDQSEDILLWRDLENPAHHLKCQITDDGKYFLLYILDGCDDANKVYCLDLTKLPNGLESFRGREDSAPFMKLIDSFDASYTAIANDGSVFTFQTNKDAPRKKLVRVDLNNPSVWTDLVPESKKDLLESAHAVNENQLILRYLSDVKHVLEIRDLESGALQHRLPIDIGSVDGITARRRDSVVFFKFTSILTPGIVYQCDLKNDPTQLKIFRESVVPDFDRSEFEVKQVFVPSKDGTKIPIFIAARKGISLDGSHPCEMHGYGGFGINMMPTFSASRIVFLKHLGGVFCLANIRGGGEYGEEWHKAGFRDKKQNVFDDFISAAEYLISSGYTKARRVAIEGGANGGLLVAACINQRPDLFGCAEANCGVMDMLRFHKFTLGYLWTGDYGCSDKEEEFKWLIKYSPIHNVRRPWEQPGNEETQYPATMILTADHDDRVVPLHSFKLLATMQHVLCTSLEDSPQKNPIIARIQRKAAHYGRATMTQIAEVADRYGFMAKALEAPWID


Experiments:
[1] = biological target: PCY1:S562A (Saponaria vaccaria) (UniProt R4P353); assay: ITC
[2] = tested on: PCY1; format: biochemical, Saponaria vaccaria; details: LC/MS (ion count); 30 °C; pH 8.5
[3] = biological target: T1, PCY1:S562A; assay: ITC

Molecule | Kd [1] [nM] | other results
presegetalin D1 (peptide) | 250 | –
presegetalin B1 (peptide) | 238 | –
presegetalin F1 (peptide) | 136 | –
presegetalin A1 (peptide) | 173 | –
FSASYSSKP FQA | – | kcat/Km [2]: 1200 s^–1 M^–1
DNASAPV | – | Kd [3]: 9580 ± 580 nM
